Experimental data published in patent US20200171163A1 (Daiichi Sankyo, published 2020).

B1: anti-CDH6 antibody NOV0712 (antibody, V domains shown)
VH: QVQLLESGGGLVQPGGSLRLSCAASGFTFSSHGMHWVRQAPGKGLEWVSVISGSGSNTGYADSVKGRFTISRDNSKNTLYLQMNSLRAEDTAVYYCARQWGSYAFDSWGQGTLVTVSS
VL: DIQMTQSPSSLSASVGDRVTITCRASQSISSYLNWYQQKPGKAPKLLIYAVSTLQSGVPSRFSGSGSGTDFTLTISSLQPEDFATYYCQQSGTFPPTTFGQGTKVEIKR
notes: also called NOV0712 antibody; labeled NOV0712
B2: human chimeric anti-CDH6 antibody chG019 (antibody, human IgG1)
heavy: not shown
light: DIQMTQSPSLLSASVGDRVTLNCKASQNIYKNLAWYQQKLGEGPKLLIYDANTLQTGIPSRFSGSGSGSDFTLTISSLQPEDVATYFCQQYYSGWAFGGVTNLELKRAVAAPSVFIFPPSDEQLKSGTASVVCLLNNFYPREAKVQWKVDNALQSGNSQESVTEQDSKDSTYSLSSTLTLSKADYEKHKVYACEVTHQGLSSPVTKSFNRGEC
notes: Human IgG1/kappa chimera; also called chG019 antibody; chimeric G019 antibody

Assays:
[1] = target: T1, human CDH6 (full-length, on cells) (human, UniProt P55285 54-790); test: flow cytometry; 293α cells transfected with full-length hCDH6 (open) vs untransfected control cells (shaded); APC anti-human IgG
T1 construct: also called hCDH6; full-length hCDH6
T1 sequence: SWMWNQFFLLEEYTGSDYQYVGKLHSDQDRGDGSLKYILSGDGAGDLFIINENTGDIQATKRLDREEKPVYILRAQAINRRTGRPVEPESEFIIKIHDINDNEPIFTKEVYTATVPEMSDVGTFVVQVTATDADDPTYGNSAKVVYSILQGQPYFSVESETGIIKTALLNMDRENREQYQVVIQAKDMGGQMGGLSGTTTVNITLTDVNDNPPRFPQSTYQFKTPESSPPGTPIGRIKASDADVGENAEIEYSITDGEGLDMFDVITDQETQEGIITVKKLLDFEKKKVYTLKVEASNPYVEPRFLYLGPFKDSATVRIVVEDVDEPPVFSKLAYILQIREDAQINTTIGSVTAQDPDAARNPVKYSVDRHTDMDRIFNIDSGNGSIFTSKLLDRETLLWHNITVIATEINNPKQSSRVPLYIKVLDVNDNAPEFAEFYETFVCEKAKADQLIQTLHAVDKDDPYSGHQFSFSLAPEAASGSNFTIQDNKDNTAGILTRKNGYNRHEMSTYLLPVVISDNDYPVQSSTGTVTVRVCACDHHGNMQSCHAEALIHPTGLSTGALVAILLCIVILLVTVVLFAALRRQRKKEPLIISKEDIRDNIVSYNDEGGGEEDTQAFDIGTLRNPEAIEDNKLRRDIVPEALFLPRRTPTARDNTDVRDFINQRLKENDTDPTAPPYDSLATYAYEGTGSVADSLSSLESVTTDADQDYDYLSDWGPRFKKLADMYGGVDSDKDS
Procedure: The cells were cultured overnight under conditions of 37° C. and 5% CO₂, and thereafter, a cell suspension was prepared. […] Thereafter, the cells were suspended by the addition of each of the 4 humanized hG019 antibodies (clone Nos: H01L02, H02L02, H02L03 and H04L02), which had been prepared in Example 5)-5-3, or the anti-CDH6 antibody NOV0712, which had been prepared in Reference Example 1, or human IgG1 (Calbiochem) as a negative control. The cells were left standing at 4° C. for 1 hour. The cells were washed twice with PBS supplemented with 5% FBS, and then suspended by the addition of APC-anti-human IgG goat F(ab′)2 (Jackson ImmunoResearch Laboratories, Inc.) that had been 500-fold diluted with PBS supplemented with 5% FBS. The cells were left standing at 4° C. for 1 hour. The cells were washed twice with PBS supplemented with 5% FBS, followed by detection using a flow cytometer (Canto II; BD Biosciences). The data was analyzed using FlowJo (Tree Star, Inc.). In the histograms of FIGS. 7-1 to 7-6, the abscissa depicts APC fluorescence intensity indicating the amount of the antibody bound, and the ordinate depicts cell count. […] Fluorescence intensity is enhanced when the antibody binds to full-length hCDH6 or each EC domain deletion mutant on cell surface. The human IgG1 control binds to none of the transfected cells.

[2] = target: T2, EC5 deletion mutant of human CDH6 (human, UniProt P55285 54-790); test: flow cytometry; 293α cells transfected with EC5-deleted hCDH6 (open) vs untransfected control cells (shaded); APC anti-human IgG
T2 construct: In p3×FLAG-CMV-9; also called EC5-deleted hCDH6
T2 sequence: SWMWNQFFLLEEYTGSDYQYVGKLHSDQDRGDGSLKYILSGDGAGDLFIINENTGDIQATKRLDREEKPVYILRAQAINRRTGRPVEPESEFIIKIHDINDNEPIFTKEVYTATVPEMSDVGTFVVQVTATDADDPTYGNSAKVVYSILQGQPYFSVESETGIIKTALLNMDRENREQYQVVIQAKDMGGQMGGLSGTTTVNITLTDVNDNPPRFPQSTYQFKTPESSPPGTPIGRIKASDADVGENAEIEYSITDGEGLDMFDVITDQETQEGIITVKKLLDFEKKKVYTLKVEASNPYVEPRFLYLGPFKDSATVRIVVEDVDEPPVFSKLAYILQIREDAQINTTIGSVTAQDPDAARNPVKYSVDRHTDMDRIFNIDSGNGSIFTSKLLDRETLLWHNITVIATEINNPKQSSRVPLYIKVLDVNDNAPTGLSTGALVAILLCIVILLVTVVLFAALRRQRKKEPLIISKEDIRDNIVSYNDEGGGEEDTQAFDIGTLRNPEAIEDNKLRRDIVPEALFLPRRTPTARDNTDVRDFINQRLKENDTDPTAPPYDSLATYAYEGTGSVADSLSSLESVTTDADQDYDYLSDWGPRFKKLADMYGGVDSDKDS
Procedure: Thereafter, the cells were suspended by the addition of each of the 4 humanized hG019 antibodies (clone Nos: H01L02, H02L02, H02L03 and H04L02), which had been prepared in Example 5)-5-3, or the anti-CDH6 antibody NOV0712, which had been prepared in Reference Example 1, or human IgG1 (Calbiochem) as a negative control. The cells were left standing at 4° C. for 1 hour. The cells were washed twice with PBS supplemented with 5% FBS, and then suspended by the addition of APC-anti-human IgG goat F(ab′)2 (Jackson ImmunoResearch Laboratories, Inc.) that had been 500-fold diluted with PBS supplemented with 5% FBS. The cells were left standing at 4° C. for 1 hour. The cells were washed twice with PBS supplemented with 5% FBS, followed by detection using a flow cytometer (Canto II; BD Biosciences). The data was analyzed using FlowJo (Tree Star, Inc.). In the histograms of FIGS. 7-1 to 7-6, the abscissa depicts APC fluorescence intensity indicating the amount of the antibody bound, and the ordinate depicts cell count. […] Fluorescence intensity is enhanced when the antibody binds to full-length hCDH6 or each EC domain deletion mutant on cell surface. The human IgG1 control binds to none of the transfected cells.

[3] = target: T1, human CDH6 (full-length, on cells); test: flow cytometry, MFI vs antibody concentration; 293α cells transfected with pcDNA3.1-hCDH6; PE anti-human IgG Fcγ
Procedure: (§1) The CDH6-binding activity of the human chimeric anti-CDH6 antibody chG019 purified in 4)-2 was confirmed by flow cytometry. […] The cells were cultured overnight under conditions of 37° C. and 5% CO₂, and thereafter, a cell suspension was prepared. chG019 was added to the suspension of each of these cells. The cells were left standing at 4° C. for 1 hour. Thereafter, the cells were washed twice with PBS supplemented with 5% FBS, and then suspended by the addition of PE-labeled F(ab′)2 Fragment anti-human IgG, Fcγ antibody (Jackson ImmunoResearch Laboratories, Inc.) that had been 500-fold diluted with PBS supplemented with 5% FBS. The cells were left standing at 4° C. for 1 hour. The cells were washed twice with PBS supplemented with 5% FBS, and then re-suspended in PBS supplemented with 5% FBS, followed by detection using a flow cytometer (Canto II; BD Biosciences). The data was analyzed using FlowJo (Tree Star, Inc.). […] In FIG. 5, the abscissa depicts antibody concentration, and the ordinate depicts the amount of the antibody bound, based on mean fluorescence intensity.

[4] = target: T3, cynomolgus monkey CDH6 (on cells) (cynomolgus monkey, UniProt P55285 54-790 (human entry)); test: flow cytometry, MFI vs antibody concentration; 293α cells transfected with pcDNA3.1-cynoCDH6; PE anti-human IgG Fcγ
T3 construct: Expressed from pcDNA3.1-cynoCDH6; also called cynoCDH6
T3 sequence: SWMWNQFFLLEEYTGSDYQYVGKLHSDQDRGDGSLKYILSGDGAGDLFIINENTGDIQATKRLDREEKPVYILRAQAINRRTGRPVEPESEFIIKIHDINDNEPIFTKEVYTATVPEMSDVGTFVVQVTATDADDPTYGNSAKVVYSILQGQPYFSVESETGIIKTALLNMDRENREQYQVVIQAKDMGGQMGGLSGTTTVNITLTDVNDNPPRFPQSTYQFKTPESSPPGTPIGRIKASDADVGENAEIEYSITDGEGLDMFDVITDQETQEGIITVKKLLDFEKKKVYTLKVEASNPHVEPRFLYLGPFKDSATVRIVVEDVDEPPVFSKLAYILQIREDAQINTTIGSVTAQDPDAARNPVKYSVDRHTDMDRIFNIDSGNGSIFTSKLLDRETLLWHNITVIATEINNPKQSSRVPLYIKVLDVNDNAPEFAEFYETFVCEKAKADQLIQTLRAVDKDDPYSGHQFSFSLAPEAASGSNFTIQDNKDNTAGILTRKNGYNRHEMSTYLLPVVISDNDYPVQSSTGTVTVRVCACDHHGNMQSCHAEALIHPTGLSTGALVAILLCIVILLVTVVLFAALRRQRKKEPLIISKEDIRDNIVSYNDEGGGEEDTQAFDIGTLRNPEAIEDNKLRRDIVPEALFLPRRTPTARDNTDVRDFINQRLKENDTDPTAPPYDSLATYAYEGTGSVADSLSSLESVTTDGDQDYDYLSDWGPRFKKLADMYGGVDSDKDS
Procedure: as §1

Row | Binder | binding result [1] | binding result [2] | EC50 (read off the curve) [3] [µg/mL] | EC50 (read off the curve) [4] [µg/mL]
1 | B1 | binds | no binding (tested: not given (single concentration)) | – | –
2 | B2 | – | – | ~0.01 | ~0.01
